The target in test [1] is T1, Biotin PSGL-1(42-62) L49A peptide (C-terminal Lys-biotin).
T1 peptide: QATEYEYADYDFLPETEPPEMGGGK
Put plainly: alanine-scan ELISA, streptavidin-immobilized biotin peptide.

Test [2] deals with T2, Biotin PSGL-1(42-62) L54A peptide (C-terminal Lys-biotin).
T2 peptide: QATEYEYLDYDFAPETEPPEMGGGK
The description is as above.

For test [3], the target named is T3, Biotin PSGL-1(42-62) P55A peptide (C-terminal Lys-biotin).
T3 peptide: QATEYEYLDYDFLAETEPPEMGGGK
Described as above.

In test [4] the target is T4, Biotin PSGL-1(42-62) E56A peptide (C-terminal Lys-biotin).
T4 peptide: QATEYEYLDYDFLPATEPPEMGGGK
Described as above.

The target of test [5] is T5, Biotin PSGL-1(42-62) D50A peptide (C-terminal Lys-biotin).
T5 peptide: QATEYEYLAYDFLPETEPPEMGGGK
The test is described as above.

In test [6] the target is T6, Biotin PSGL-1(42-62) F53A peptide (C-terminal Lys-biotin).
T6 peptide: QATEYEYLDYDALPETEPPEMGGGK
The test is described as above.

The target in test [7] is T7, 42-80 (C-terminal Lys-biotin).
T7 construct: also called Biotin PSGL-1(42-80) peptide
T7 peptide: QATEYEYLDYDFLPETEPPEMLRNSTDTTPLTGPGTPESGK
As to the kind of experiment: ELISA, streptavidin-immobilized biotin peptide [cont.]. On the procedure:
(§1) A typical ELISA experiment involved binding of a single concentration or serially diluted mAb in assay buffer (3% BSA in PBS containing 0.05% Tween®20, pH 7.4) onto BSA blocked high binding microtiter plate half-wells (Corning Cat. #3690), which contained PSGL-1 protein or streptavidin-immobilized biotin peptide. After incubation for 45 min. at 37° C., the plate was washed 3 times with wash buffer (PBS containing 0.05% Tween®20, pH 7.4), and an appropriate HRP-conjugated secondary antibody added (25 ul/well) (HRP goat anti-mouse or anti-human IgG). After 45 min. incubation at 37° C., the plate was washed and antibody bound to plate-immobilized target was determined at A450 nm using HRP substrate (3,3′5,5′-tetramethylbenzidine (TMB)). For each antibody, duplicate values were averaged and assay background subtracted.
(In general: In an ELISA, binding on a coated surface is turned into a signal by an enzyme label.)

For test [8], the target named is T8, 63-80 (N-terminal acetyl; C-terminal Lys-biotin).
T8 construct: also called Biotin PSGL-1(63-80) peptide
T8 peptide: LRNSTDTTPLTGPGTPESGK
The description is as above. On the procedure:
as §1

Test [9] has as its target T9, 75-95 (N-terminal acetyl; C-terminal Lys-biotin).
T9 construct: also called Biotin PSGL-1(75-95) peptide
T9 peptide: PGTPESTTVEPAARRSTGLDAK
Described as above. On the procedure:
as §1

For test [10], the target named is T10, PSGL-1(90-110) (N-terminal acetyl; C-terminal Lys-biotin).
T10 construct: also called Biotin PSGL-1(90-110) peptide
T10 peptide: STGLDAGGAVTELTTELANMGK
Described as above. On the procedure: as §1

The target of test [11] is T11, PSGL-1(120-140) (N-terminal acetyl; C-terminal Lys-biotin).
T11 construct: also called Biotin PSGL-1(120-140) peptide
T11 peptide: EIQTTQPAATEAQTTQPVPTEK
Described as above. On the procedure: as §1

Test [12] has as its target T12, 131-150 (N-terminal acetyl; C-terminal Lys-biotin).
T12 construct: also called Biotin PSGL-1(131-150) peptide
T12 peptide: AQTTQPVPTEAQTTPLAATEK
The description is as above. On the procedure:
as §1

Test [13] has as its target T13, 145-170 (N-terminal acetyl; C-terminal Lys-biotin).
T13 peptide: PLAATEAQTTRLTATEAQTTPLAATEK
Described as above. On the procedure: as §1

Test [14] addresses T14, 165-190 (N-terminal acetyl; C-terminal Lys-biotin).
T14 construct: also called Biotin PSGL-1(165-190) peptide
T14 peptide: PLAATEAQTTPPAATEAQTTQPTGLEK
The description is as above. On the procedure: as §1

The target in test [15] is T15, 185-210 (N-terminal acetyl; C-terminal Lys-biotin).
T15 construct: also called Biotin PSGL-1(185-210) peptide
T15 peptide: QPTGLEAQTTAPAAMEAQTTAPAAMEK
The test is described as above. On the procedure: as §1

Test [16] deals with T16, 205-230 (N-terminal acetyl; C-terminal Lys-biotin).
T16 peptide: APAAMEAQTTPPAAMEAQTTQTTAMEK
Described as above. On the procedure: as §1

Test [17] deals with T17, 225-250 (N-terminal acetyl; C-terminal Lys-biotin).
T17 peptide: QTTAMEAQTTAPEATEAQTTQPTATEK
The test is described as above. On the procedure:
as §1

Test [18] has as its target T18, 245-265 (N-terminal acetyl; C-terminal Lys-biotin).
T18 peptide: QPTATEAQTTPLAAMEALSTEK
The description is as above. On the procedure:
as §1

Test [19] addresses T19, 260-280 (N-terminal acetyl; C-terminal Lys-biotin).
T19 construct: also called Biotin PSGL-1(260-280) peptide
T19 peptide: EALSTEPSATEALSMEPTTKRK
The test is described as above. On the procedure: as §1

Test [20] concerns the target T20, 275-295 (N-terminal acetyl; C-terminal Lys-biotin).
T20 peptide: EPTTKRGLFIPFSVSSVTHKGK
The description is as above. On the procedure: as §1

The target of test [21] is T21, PSGL-1(305-320).
T21 construct: also called Biotin PSGL-1(305-320) peptide
T21 peptide: Ac-VNYPVGAPDHISVKQSK(Biotin)
The description is as above. On the procedure: as §1

Test [22] has as its target T22, Biotin PSGL-1(56-70) peptide (human).
T22 peptide: Ac-ETEPPEMLRNSTDTTGK(Biotin)
Described as above. On the procedure:
as §1

Test [23] concerns the target T23, Biotin PSGL-1(42-62) peptide, unmodified (human, C-terminal Lys-biotin).
T23 construct: Residues 42-62 followed by GGGK-biotin; also called WT; wild-type
T23 peptide: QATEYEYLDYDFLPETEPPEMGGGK
The test is described as above. On the procedure: as §1

The source of these data is patent US20220396632A1 (VERSEAU THERAPEUTICS, published 2022).

No end group written: not given here. *: point of attachment. Biotin = O=C1N[C@H]2[C@H](CS[C@H]2CCCCC(=O)*)N1

B1: 18F02 (antibody, V domains shown)
VH: QVQLQQPGAELVKPGASVKLSCKASGYTFTSYWMHWVKQRPGQGLEWIGMIHPNSGRTNYNEKFKSKATLTVDKSSSTAYMQLSSLTSEDSAVYYCARSDYWGQGTTLTVSS
VL: DIVMTQAAFSNPVTLGTSASISCRSSKSLLHSDGITYLYWFLQRPGQSPQLLIYRMSNLASGVPDRFSGSGSGTDFTLRISRVEAEDVGVYYCAQMLEFPRTFGGGTKLEIK
notes: From mouse immunisation; only variable domains given
As to B1, the binding result in test [1], in [2], in test [3] and in test [4] was “binds” each time.

B2: 43B6 (antibody, V domains shown)
VH: EVQLQQSGPDLVKPGALVKISCKASGYSFTAYYIHWVKQSHGKSLEWIGRVNPNTGGTSYNPKFKGKAILNVDKSSSTAYMELRSLTSEDSAVYYCARSGSPYYRYDDWGQGTTLTVSS
VL: ENVLTQSPAIMSASPGEKVTMTCRASSTVNSTYLHWFQQKSGASPKLWIYGSSNLASGVPARFSGSGSGTSYSLTISSVEAEDAATYYCQQYSGYPLTFGAGTTLELK
notes: Control anti-PSGL-1 mAb, recombinant; only variable domains given; also called 43B3
For the molecule B2, the binding result in test [5] and in [6] was “binds” throughout.

B3: 18K07 (antibody, V domains shown)
VH: QIQLVQSGPELKKPGETVKISCEASGYTFTTYGMNWVKQAPGKGLKWMGWINTYSGVPTYADDFQGRFAFSVETSATTAYLQINNLKNEDAATYFCARSDDTYYGFAYWGQGTLVTVSA
VL: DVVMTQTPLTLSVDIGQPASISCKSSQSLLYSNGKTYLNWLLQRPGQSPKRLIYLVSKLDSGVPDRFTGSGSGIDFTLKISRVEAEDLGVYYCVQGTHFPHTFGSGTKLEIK
notes: as for B1
As for B3, the binding result is “no binding (tested: 10 nM)” in test [7]; “no binding (tested: 10 nM)” in test [8]; “no binding (tested: 10 nM)” in test [9]; “no binding (tested: 10 nM)” in test [10]; “no binding (tested: Log M -7 (100 nM))” in [11]; “no binding (tested: 10 nM)” in test [12]. Also, the binding result in test [13], in [14], in [15], in [16], in test [17] and in [18] was “no binding (tested: 10 nM)” in each case. Besides, the binding result in [19], in test [20], in [21], in test [22] and in [23] was “no binding (tested: 10 nM)” each time.
